Laboratory results reported in article PMC9352680, “A comprehensive thermodynamic model for RNA binding by the Saccharomyces cerevisiae Pumilio protein PUF4”.

T1: PUF4 RNA-binding domain (Saccharomyces cerevisiae, UniProt P25339 537-888)
T1 sequence: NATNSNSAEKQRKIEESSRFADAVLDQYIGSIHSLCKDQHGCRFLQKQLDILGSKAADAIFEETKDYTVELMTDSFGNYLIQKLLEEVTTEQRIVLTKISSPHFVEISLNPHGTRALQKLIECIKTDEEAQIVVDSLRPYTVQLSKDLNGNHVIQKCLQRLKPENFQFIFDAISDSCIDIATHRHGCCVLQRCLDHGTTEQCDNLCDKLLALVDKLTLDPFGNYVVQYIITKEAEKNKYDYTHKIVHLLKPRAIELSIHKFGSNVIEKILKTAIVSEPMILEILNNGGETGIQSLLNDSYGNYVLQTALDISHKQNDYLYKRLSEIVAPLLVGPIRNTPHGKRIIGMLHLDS


Target: T1, PUF4 RNA-binding domain
Assay: Mg; RNA-MaP; 20 mM Na-HEPES pH 7.4, 30 mM KOAc, 0.75 mM MgCl2, 0.1% Tween-20, 5% glycerol, 0.1 mg/mL BSA, 2 mM DTT; 25 C; 0.0125-409.6 nM protein
Details: tags: N-His6-TEV cleaved; C-SNAP kept, Cy3B-labelled; label: tethered on chip by stalled RNA polymerase

Binder	Kd [nM]
UCUCUUUGUAAAAGCUCUCUU (ssRNA) [Ic_S1_P4E.1_K4.1_C4.1_H4.1_A4.1_[T5A]_[T7A]_F4.1_[T8G]_[A9C]_T4.1]	2280
UCUCUUUGUAAAACCUCUCUU (ssRNA) [Ic_S1_P4E.1_K4.1_C4.1_H4.1_A4.1_[T5A]_[T7A]_F4.1_[T8C]_[A9C]_T4.1]	523
UCUCUUUGUAAAACUUCUCUU (ssRNA) [Ic_S1_P4E.1_K4.1_C4.1_H4.1_A4.1_[T5A]_[T7A]_F4.1_[T8C]_[A9T]_T4.1]	106
UCUCUUUGUAAAACAUCUCUU (ssRNA) [Ic_S1_P4E.1_K4.1_C4.1_H4.1_A4.1_[T5A]_[T7A]_F4.1_[T8C]_T4.1]	41.1
UCUCUUUGUAAAAACUCUCUU (ssRNA) [Ic_S1_P4E.1_K4.1_C4.1_H4.1_A4.1_[T5A]_[T7A]_F4.1_[T8A]_[A9C]_T4.1]	526
UCUCUUUGUAAAAAUUCUCUU (ssRNA) [Ic_S1_P4E.1_K4.1_C4.1_H4.1_A4.1_[T5A]_[T7A]_F4.1_[T8A]_[A9T]_T4.1]	373
UCUCUUUGUAAAAUGUCUCUU (ssRNA) [Ic_S1_P4E.1_K4.1_C4.1_H4.1_A4.1_[T5A]_[T7A]_F4.1_[A9G]_T4.1]	27.1
UCUCUUUGUAAAAUCUCUCUU (ssRNA) [Ic_S1_P4E.1_K4.1_C4.1_H4.1_A4.1_[T5A]_[T7A]_F4.1_[A9C]_T4.1]	54.4
UCUCUUUGUAAACAUCUCUU (ssRNA) [Ib_S1_P3E.1_K3.1_C3.1_H3.1_A3.1_[T5A]_F3.1_[T7C]_T3.1]	424
UCUCUUUGUAAAAUUUCUCUU (ssRNA) [Ic_S1_P4E.1_K4.1_C4.1_H4.1_A4.1_[T5A]_[T7A]_F4.1_[A9T]_T4.1]	33.5
UCUCUUUGUAAAUGCUCUCUU (ssRNA) [Ic_S1_P4E.1_K4.1_C4.1_H4.1_A4.1_[T5A]_F4.1_[T8G]_[A9C]_T4.1]	377
UCUCUUUGUAAAUCCUCUCUU (ssRNA) [Ic_S1_P4E.1_K4.1_C4.1_H4.1_A4.1_[T5A]_F4.1_[T8C]_[A9C]_T4.1]	368
UCUCUUUGUAAAUAGUCUCUU (ssRNA) [Ic_S1_P4E.1_K4.1_C4.1_H4.1_A4.1_[T5A]_F4.1_[T8A]_[A9G]_T4.1]	11.5
UCUCUUUGUAAAUACUCUCUU (ssRNA) [Ic_S1_P4E.1_K4.1_C4.1_H4.1_A4.1_[T5A]_F4.1_[T8A]_[A9C]_T4.1]	36.7
UCUCUUUGUAAAUAUUCUCUU (ssRNA) [Ic_S1_P4E.1_K4.1_C4.1_H4.1_A4.1_[T5A]_F4.1_[T8A]_[A9T]_T4.1]	26.2
UCUCUUUGUAUGGCGUCUCUU (ssRNA) [Ic_S1_P4E.1_K4.1_C4.1_H4.1_A4.1_[A6G]_[T7G]_F4.1_[T8C]_[A9G]_T4.1]	> 2300
UCUCUUUGUAUGGCCUCUCUU (ssRNA) [Ic_S1_P4E.1_K4.1_C4.1_H4.1_A4.1_[A6G]_[T7G]_F4.1_[T8C]_[A9C]_T4.1]	> 2300

Binder	Kd [nM]
UCUCUUUGUAUGGCUUCUCUU (ssRNA) [Ic_S1_P4E.1_K4.1_C4.1_H4.1_A4.1_[A6G]_[T7G]_F4.1_[T8C]_[A9T]_T4.1]	1630
UCUCUUUGUAUGGUCUCUCUU (ssRNA) [Ic_S1_P4E.1_K4.1_C4.1_H4.1_A4.1_[A6G]_[T7G]_F4.1_[A9C]_T4.1]	1260
UCUCUUUGUACAAAUCUCUU (ssRNA) [Ic_S1_P3E.1_K3.1_C3.1_H3.1_A3.1_[T5C]_F3.1_[T7A]_T3.1]	100
UCUCUUUGUAUGGUUUCUCUU (ssRNA) [Ic_S1_P4E.1_K4.1_C4.1_H4.1_A4.1_[A6G]_[T7G]_F4.1_[A9T]_T4.1]	542
UCUCUUUGUAUGCGCUCUCUU (ssRNA) [Ic_S1_P4E.1_K4.1_C4.1_H4.1_A4.1_[A6G]_[T7C]_F4.1_[T8G]_[A9C]_T4.1]	> 2300
UCUCUUUGUAUGCGUUCUCUU (ssRNA) [Ic_S1_P4E.1_K4.1_C4.1_H4.1_A4.1_[A6G]_[T7C]_F4.1_[T8G]_[A9T]_T4.1]	1210
UCUCUUUGUAUGCCAUCUCUU (ssRNA) [Ic_S1_P4E.1_K4.1_C4.1_H4.1_A4.1_[A6G]_[T7C]_F4.1_[T8C]_T4.1]	472
UCUCUUUGUAUGCAGUCUCUU (ssRNA) [Ic_S1_P4E.1_K4.1_C4.1_H4.1_A4.1_[A6G]_[T7C]_F4.1_[T8A]_[A9G]_T4.1]	> 2300
UCUCUUUGUAUGCAUUCUCUU (ssRNA) [Ic_S1_P4E.1_K4.1_C4.1_H4.1_A4.1_[A6G]_[T7C]_F4.1_[T8A]_[A9T]_T4.1]	565
UCUCUUUGUAUGCAAUCUCUU (ssRNA) [Ic_S1_P4E.1_K4.1_C4.1_H4.1_A4.1_[A6G]_[T7C]_F4.1_[T8A]_T4.1]	516
UCUCUUUGUAUGCUGUCUCUU (ssRNA) [Ic_S1_P4E.1_K4.1_C4.1_H4.1_A4.1_[A6G]_[T7C]_F4.1_[A9G]_T4.1]	685
UCUCUUUGUAUGCUCUCUCUU (ssRNA) [Ic_S1_P4E.1_K4.1_C4.1_H4.1_A4.1_[A6G]_[T7C]_F4.1_[A9C]_T4.1]	677
UCUCUUUGUAUGCUUUCUCUU (ssRNA) [Ic_S1_P4E.1_K4.1_C4.1_H4.1_A4.1_[A6G]_[T7C]_F4.1_[A9T]_T4.1]	96.1
UCUCUUUGUAAAAAUCUCUU (ssRNA) [Ic_S1_P3E.1_K3.1_C3.1_H3.1_A3.1_[T5A]_F3.1_[T7A]_T3.1]	367
UCUCUUUGUAUGACUUCUCUU (ssRNA) [Ic_S1_P4E.1_K4.1_C4.1_H4.1_A4.1_[A6G]_[T7A]_F4.1_[T8C]_[A9T]_T4.1]	804
UCUCUUUGUAUGAUGUCUCUU (ssRNA) [Ic_S1_P4E.1_K4.1_C4.1_H4.1_A4.1_[A6G]_[T7A]_F4.1_[A9G]_T4.1]	56.7
